The values below come from paper PMC5922973, “Topoisomerase VI senses and exploits both DNA crossings and bends to facilitate strand passage” (eLife, 2018).

One data set addresses T1, topo VI H2TH-EEE (Methanosarcina mazei, UniProt Q8PUB7;Q8PUB8 1-369;1-621, R263E;K268E;K308E).
T1 sequence 1: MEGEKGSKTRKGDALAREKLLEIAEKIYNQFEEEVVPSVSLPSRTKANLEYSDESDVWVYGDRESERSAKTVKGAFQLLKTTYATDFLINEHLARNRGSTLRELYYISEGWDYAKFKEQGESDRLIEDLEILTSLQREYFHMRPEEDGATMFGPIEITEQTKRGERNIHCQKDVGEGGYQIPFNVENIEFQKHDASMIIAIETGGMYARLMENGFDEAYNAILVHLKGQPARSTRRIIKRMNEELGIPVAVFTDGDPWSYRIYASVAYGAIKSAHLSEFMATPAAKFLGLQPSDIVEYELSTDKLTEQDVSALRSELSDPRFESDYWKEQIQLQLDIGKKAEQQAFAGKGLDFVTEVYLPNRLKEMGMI
T1 sequence 2: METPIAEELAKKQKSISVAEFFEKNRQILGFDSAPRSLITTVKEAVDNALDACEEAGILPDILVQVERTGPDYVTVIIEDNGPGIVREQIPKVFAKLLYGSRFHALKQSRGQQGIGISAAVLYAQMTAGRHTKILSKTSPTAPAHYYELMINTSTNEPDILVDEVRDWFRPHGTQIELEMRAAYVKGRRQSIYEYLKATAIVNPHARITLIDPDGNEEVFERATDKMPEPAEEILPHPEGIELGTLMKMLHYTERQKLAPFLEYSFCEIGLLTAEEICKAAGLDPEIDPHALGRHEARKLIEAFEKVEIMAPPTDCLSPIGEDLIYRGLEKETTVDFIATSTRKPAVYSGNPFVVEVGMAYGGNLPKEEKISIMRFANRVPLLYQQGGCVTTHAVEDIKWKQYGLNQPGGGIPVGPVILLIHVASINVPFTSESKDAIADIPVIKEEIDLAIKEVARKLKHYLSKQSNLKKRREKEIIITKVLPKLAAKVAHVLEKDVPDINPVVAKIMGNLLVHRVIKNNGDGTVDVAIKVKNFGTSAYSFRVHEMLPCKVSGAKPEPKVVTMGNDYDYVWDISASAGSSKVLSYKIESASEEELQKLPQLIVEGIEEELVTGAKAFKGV
Kind of data set: fluorescence anisotropy; Hill h 1.3; FA: 20 nM probe, 50 mM K-glutamate, 20 mM HEPES-KOH pH 7.5, 10 mM MgCl2, 5% glycerol, 1 mM TCEP, 0.1 mg/mL BSA; incubated on ice, read at ambient temperature; competition with 100 nM enzyme. To be noted: protein: recombinant; tags: N-terminal His6-TEV on Top6B, removed; chain copies: 2;2; label: 5'-FAM strand 1; blunt. A general note: Polarisation of emitted light reports the rotation of a fluorescent probe.

For another data set, the target named is T2, topo VI KGRR-AAA (Methanosarcina mazei, UniProt Q8PUB7;Q8PUB8 1-369;1-621, K186A;R188A;R189A).
T2 sequence 1: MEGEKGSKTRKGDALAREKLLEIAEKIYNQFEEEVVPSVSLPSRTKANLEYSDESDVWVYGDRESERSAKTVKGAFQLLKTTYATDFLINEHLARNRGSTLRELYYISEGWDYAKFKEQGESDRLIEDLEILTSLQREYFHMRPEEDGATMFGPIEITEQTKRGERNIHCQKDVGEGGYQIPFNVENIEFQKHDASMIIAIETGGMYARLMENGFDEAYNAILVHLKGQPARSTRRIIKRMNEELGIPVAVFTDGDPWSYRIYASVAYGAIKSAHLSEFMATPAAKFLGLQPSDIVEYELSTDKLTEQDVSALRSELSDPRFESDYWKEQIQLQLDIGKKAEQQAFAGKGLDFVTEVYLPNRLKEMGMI
T2 sequence 2: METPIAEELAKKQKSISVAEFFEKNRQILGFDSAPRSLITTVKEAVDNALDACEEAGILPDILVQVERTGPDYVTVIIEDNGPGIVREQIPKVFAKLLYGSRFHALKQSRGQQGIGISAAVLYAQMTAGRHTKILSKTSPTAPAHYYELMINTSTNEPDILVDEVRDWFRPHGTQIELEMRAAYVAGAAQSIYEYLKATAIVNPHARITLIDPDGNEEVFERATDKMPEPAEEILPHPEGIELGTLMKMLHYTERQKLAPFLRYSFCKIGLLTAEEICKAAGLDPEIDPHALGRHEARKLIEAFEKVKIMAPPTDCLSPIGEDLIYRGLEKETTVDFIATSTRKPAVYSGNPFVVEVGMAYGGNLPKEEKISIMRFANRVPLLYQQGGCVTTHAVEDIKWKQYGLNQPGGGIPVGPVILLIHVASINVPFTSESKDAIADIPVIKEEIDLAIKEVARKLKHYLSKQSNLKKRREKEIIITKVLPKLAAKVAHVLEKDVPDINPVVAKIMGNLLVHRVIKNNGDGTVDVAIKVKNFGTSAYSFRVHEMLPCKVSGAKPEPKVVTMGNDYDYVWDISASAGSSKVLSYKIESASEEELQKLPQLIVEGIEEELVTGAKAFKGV
Kind of data set: fluorescence anisotropy; 10 mM Mg2+; ambiguous, poorly defined dFAmax; FA: 20 nM probe, 50 mM K-glutamate, 20 mM HEPES-KOH pH 7.5, 10 mM MgCl2, 5% glycerol, 1 mM TCEP, 0.1 mg/mL BSA; incubated on ice, read at ambient temperature; competition with 100 nM enzyme. To be noted: protein: recombinant; tags: N-terminal His6-TEV on Top6B, removed; chain copies: 2;2; label: 5'-FAM on S1; four-way Holliday junction, stacked-X, two GAAA-capped arms.

The next data set addresses T3, topo VI KGRR-EEE (Methanosarcina mazei, UniProt Q8PUB7;Q8PUB8 1-369;1-621, K186E;R188E;R189E).
T3 sequence 1: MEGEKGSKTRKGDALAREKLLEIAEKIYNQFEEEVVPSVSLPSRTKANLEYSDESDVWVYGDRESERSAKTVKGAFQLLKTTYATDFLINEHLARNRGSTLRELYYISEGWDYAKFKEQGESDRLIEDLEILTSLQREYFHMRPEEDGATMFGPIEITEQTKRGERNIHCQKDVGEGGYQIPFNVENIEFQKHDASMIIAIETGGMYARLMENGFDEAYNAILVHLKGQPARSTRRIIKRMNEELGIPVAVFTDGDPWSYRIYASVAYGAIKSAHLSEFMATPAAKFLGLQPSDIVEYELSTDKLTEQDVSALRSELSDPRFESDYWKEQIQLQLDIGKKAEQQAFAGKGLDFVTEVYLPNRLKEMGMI
T3 sequence 2: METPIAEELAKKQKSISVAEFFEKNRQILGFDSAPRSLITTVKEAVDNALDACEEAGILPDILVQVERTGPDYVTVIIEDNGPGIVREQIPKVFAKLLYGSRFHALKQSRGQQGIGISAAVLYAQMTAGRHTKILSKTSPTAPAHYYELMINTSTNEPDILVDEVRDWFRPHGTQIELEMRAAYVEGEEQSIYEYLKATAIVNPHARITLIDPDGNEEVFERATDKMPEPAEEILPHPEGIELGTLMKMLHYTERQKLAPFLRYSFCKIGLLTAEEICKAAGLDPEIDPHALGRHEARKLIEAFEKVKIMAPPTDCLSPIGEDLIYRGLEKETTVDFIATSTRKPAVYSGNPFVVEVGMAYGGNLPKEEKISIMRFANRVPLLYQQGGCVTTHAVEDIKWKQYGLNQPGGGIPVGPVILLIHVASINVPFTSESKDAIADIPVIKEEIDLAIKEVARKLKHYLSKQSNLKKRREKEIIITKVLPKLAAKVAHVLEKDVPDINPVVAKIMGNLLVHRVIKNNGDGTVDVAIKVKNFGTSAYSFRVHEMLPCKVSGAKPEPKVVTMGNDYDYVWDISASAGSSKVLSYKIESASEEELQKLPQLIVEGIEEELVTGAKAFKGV
The data set is described as above. Particulars: protein: recombinant; tags: N-terminal His6-TEV on Top6B, removed; chain copies: 2;2; label: 5'-FAM on S1; four-way Holliday junction, stacked-X, two GAAA-capped arms.

B1: 30 bp duplex (dsDNA)
DNA 1: CAAAAAGGAAGAGTATGAGTATTCAACATC
DNA 2: GATGTTGAATACTCATACTCTTCCTTTTTG
For B1, in the data set with topo VI H2TH-EEE, the dissociation constant Kd (usually the concentration at which binding is half-saturated) turned out to be 94 ± 5 nM.

B2: 16 x 20 bp stacked junction (structured_DNA)
DNA 1: CGAATACTCAGCTCAACCGAAAGGTTGAGCCTTCGCTCGAAAGAGCGAAGTACTCTTCCG
DNA 2: CGGAAGAGTATGAGTATTCG
Regarding B2, the Kd in the data set with topo VI KGRR-AAA is around 758 nM; in the data set with topo VI KGRR-EEE it was around 1460 nM.
